Measurements taken from a protein production outcome set (Wang et al. 2014).

Assay: label from the status in PepcDB records

Sequence	protein production
MSAALPSIQLPVDYNNLFNEITDFLVTFKQDTLSSDATRNENEDENLDAENIEQHLLEKGPKYMAMLQKVANRELNSVIIDLDDILQYQNEKFLQGTQADDLVSAIQQNANHFTELFCRAIDNNMPLPTKEIDYKDDVLDVILNQRRLRNERMLSDRTNEIRSENLMDTTMDPPSSMNDALREVVEDETELFPPNLTRRYFLYFKPLSQNCARRYRKKAISSKPLSVRQIKGDFLGQLITVRGIITRVSDVKPAVEVIAYTCDQCGYEVFQEVNSRTFTPLSECTSEECSQNQTKGQLFMSTRASKFSAFQECKIQELSQQVPVGHIPRSLNIHVNGTLVRSLSPGDIVDVTGIFLPAPYTGFKALKAGLLTETYLEAQFVRQHKKKFASFSLTSDVEERVMELITSGDVYNRLAKSIAPEIYGNLDVKKALLLLLVGGVDKRVGDGMKIRGDINVCLMGDPGVAKSQLLKAICKISPRGVYTTGKGSSGVGLTAAVMKDPVTDEMILEGGALVLADNGICCIDEFDKMDESDRTAIHEVMEQQTISISKAVINTNPGARTSILAAANPLYGRINPRLSPLDNINLPAALLSRFDILFLMLDIPSRDDDEKLAEHVTYVHMHNKQPDLDFTPVEPSKMREYIAYAKTKRPVMSEAVNDYVVQAYIRLRQDSKREMDSKFSFGQATPRTLLGIIRLSQALAKLRLADMVDIDDVEEALRLVRVSKESLYQETNKSKEDESPTTKIFTIIKKMLQETGKNTLSYENIVKTVRLRGFTMLQLSNCIQEYSYLNVWHLINEGNTLKFVDDGTMDTDQEDSLVSTPKLAPQTTASANVSAQDSDIDLQDA	failed
MSENQDELLHYRLSLRLGPVHARQRLGIERETEARVFGRDKRSFHLENLTNAPKLIRFCLKAVGLLRRAQANSLKLTTEHNTFVLPDLPSAFEGFRILHLTDLHVDMDEANLQAVIRQIAPLDYDLCVLTGDYRQRTWGPVDDALDGMARLRLAIHGDAYAVLGNHDSVRMVPALEDMGYRLLMNEMVPLERGDSRLYLAGVDDAHYYKVHNLHRAGDDIPAGGISLLLSHTPEIWREAAHAGYDLFLCGHTHGGQLCLPGGIPLTLDSDCPRRLGRGLWQVNGMQGYTSPGAGTSVLNVRLNCPPEVTIHTLTRGPLEHHHHHH	failed
MVDGEVEILRGYELRLLRCTVSFPQTGSPLESQPLDGTQSGTHPHDSLITSLLSSIEAGDYLGALSSDATKLILGDSELNLVDTVDSAEQVYSELLDKVESFVVNDSSDEIDKARRAVLVMCLAIATALWFTRCNLTGSTEGSTKCSLPLRVSESKELVEWENWAKIQLMSVGSDLLGKFSNLQHLVFARLLLFKLKDLLFEITSTETFEVRSISWWLVRVLLIHQRVLQERSSSLFEMLQVYMAEAIDHFGELEKVKSYWGANLLEDEASSITSTIHLEACVLQYIYGRIDPSRLQLESAKAAASLEFSVTGALGFRTIHQVDPKAQMVLVANTSSSNGDVRLASEKADVGPYEAWGGEAPEVYMTPKLVNNESEAGKDSVPLKPVEQALILAQCLLIERGSRHDEMQRWDMAPYIEAIDSQKSTYFVLRCFCDLLRVRWESTRGRTKGRALEMMDKLVGAINKSDPGVSNRIPLCYAVHLPTIPALRKEYGELLVSCGLVGEAITIFESLELWDNLIYCYCLLGKKSAAVDLINARLLERPNDPRLWCSLGDVTINDSCYEKALEVSNDKSVRAKRALARSAYNRGDFEKSKMLWEAAMALNSLYPDGWFALGAAALKARDVQKALDAFTFAVQLDPDNGEAWNNIACLHMIKKKSKESFIAFKEALKFKRDSWQMWENFSHVAMDVGNIDQAFEAIQQILKMSKNKRVDVVLLDRIMTELEKRNSACKSSSSSTETEASSDESTETKPCTATPAETQRQLELLGKVIQQIVKTESTAEIWGLYARWSRIKGDLTVCSEALLKQVRSYQGSEVWKDKERFKKFARASLELCRVYMEISASIGSKRELFTAEMHLKNTIKQATVSFLDSEELKELESCLEEVRNVMQKSEEEYRDTKT	failed
MSDPYPATEAHAQRAAKSPPKSLLDRLLSLVRREPEDREGIKAILEAAHERELLDAESYAMIKGALAVSERTVADIMVPRSRMDLLDISQPLPQLLATIIETAHSRFPVYEDDRDNIIGILLAKDLLRYMLEPALDIRSLVRPAVFIPEVKRLNVLLREFRASRNHLAIVIDEHGGISGLVTMEDVLEQIVGDIEDEFDEDEEESIFPEGENQWRLTASTDISHFNATFATDLPDDEYDSVGGWLGGQLGRIPRRGDSADHDGLHIEVVRADARRALWLRVRRNAGAQPPASAAE	not failed
MSLESMLSHPPIPIADMAEHTERLKANDSLKLSQEYESIDPGQQFTWEHSNLEVNKPKNRYANVIAYDHSRVILQPIEGIMGSDYINANYVDGYRRQNAYIATQGPLPETFGDFWRMVWEQRSATIVMMTRLEEKSRIKCDQYWPNRGTETYGFIQVTLLDTIELATFCVRTFSLHKNGSSEKREVRQFQFTAWPDHGVPEYPTPFLAFLRRVKTCNPPDAGPIVVHCSAGVGRTGCFIVIDAMLERIKPEKTVDVYGHVTLMRSQRNYMVQTEDQYSFIHEALLEAVGCGNTEVPARSLYAYIQKLAQVEPGEHVTGMELEFKRLANSKAHTSRFISANLPCNKFKNRLVNIMPYESTRVCLQPIRGVEGSDYINASFIDGYRQQKAYIATQGPLAETTEDFWRMLWENNSTIVVMLTKLREMGREKCHQYWPAERSARYQYFVVDPMAEYNMPQYILREFKVTDARDGQSRTVRQFQFTDWPEQGVPKSGEGFIDFIGQVHKTKEQFGQDGPISVHCSAGVGRTGVFITLSIVLERMRYEGVVDIFQTVKMLRTQRPAMVQTEDEYQFCYQAALEYLGSFDHYATEGHHHHHH	not failed
MTDIMARFVGYTGKVLPDDVTAKLQDLHKKETSQLADVIFTTMIENQRLAKELDRPSCQDTGVIQFLVECGANFPLIGELEALLRESVIKATIDSPLRHNSVETFDEYNTGKNVGKGTPTVFWEIVPNSDQCSIYTYMAGGGCSLPGKAMVLMPGAGYEGVTRFVLDVMTSYGLNACPPLLVGVGVATSVETAALLSKKALMRPIGSHNDNERAALLEKMLEDGINKIGLGPQGMSGNTSVMGVNIENTARHPSTIGVAVNVGCWSHRKGHIVFDKDLNYTITSHKGVAF	failed
MAGEDSFERIALEWHARHMANKSESHATKTLERLRKDVFPWIGNRPVREITAPELLSVLRRIESRGAIELCHVTKRICGQVMRYAIATGRAERDPAADLKGALQPVKARHLEHHHHHH	failed
MPSPARTLLLAFVSAWFLLGGLGHFVFTDFFVGIVPPYVPWPLAAVWVSGVFELLGAAALLVPAWRRLAACGLFILTLCVTPANLYMWQHPDLFPSFPPTLLAARLALQAFLLGCILALMLARDEAPLARR	failed
MSASPQAPTPPDRSSPSVSSNLGAEGAGGRRLCGSVVLSAGKILSVDKTLWQALGLSAESLSGLPFLSFLEDPSREVLAARLRLAGPPWDLRTALRVDGRAIPVVLRGDGAADRTTDTPLQVILITLAPQEGEVEPVSQSALFDHIPLGVMLSDGLGRIAYANPAFLAEDIAAVRALLGATPQALATGYLHEGLARTLWEDLLCGRVWRNDVDLPTADGQRTHSRLTIIPLRRDDGAVDRLMTVIEPRSPATDSQAWQQVNHDTLTGLPNRVLFQDRLLTALASARRRNDQLAVLFVDLDHFKTVNDSLGHSFGDQLLQQVATRLSQCLRDSDTLARMGGDEFTIALTGDGHQRDYAMIANRILETLRRPFTLEGGHEVLIGSSIGITLFPNDAEDVDTLLRNADTAMYRAKASGRNAFQFFTEEMNREIQSHLDLENALRRAVRAMDLTIHYQPVVDSATLAVVSAEALVRWPLADKGFIPPSRFIPVAEELGLIDEIGGWVLWNACTQAKVWQAQGAKAFRVSVNVSWRQLRNPDFALRVREALEGTGLGAAFLELEITEGMVLRDPQGIAPALMALSEMGVALAIDNFGSGHSSIKCLRQFPFSILKLDRSCVADVLTSHEDAVLVETAAIMARRLGLTVVAEGVETHAQLEFLREHYCDLIQGYLFGRPLPPEDFARML	failed
MIADDPHLELRLAASERDLRAAQRLRYTVFVEELGGDGDLVDHAERLERDEFDDLCDHLLLIDRRRDAAALEDVVGVYRLLPGERAAGAGRFYCDSEYDLDPLRASGRRVLELGRSCVHPDYRGGAAVFLLWSGLADYALAQRTELLFGVASFHGTDIEALAEPLSYLHAFHLAPEELRVRARSEGGQRMDLIPPERIDRRAAMLA	not failed
MGEKELIRVGVVGTGYMGENHVRIYSEMEDVRLIGISDPNSSRVKELAARYETLPFSDHKKMFGKTNLDAISIAAPTTLHCPIVLDALEAGVDVLVEKPIADSVENATAMIESAEEMDRHLMVGHIERFNPAVLKLKEVVDSGVLGKIVSV	failed
MILSMSIFGSIGFFSVQTGLPSFELVFVRCICATIFLALCWLVTGQYKSEQWNKKEIMQILACGVFLVFNWVFLFKAFEVMSITIAISVYHLAPIIVLMIGSIVFKERLTMFAVLSIVICFIGTVLVAGVDGSLSLEKLMSSGMVWALLAALFYAFTTLLGKGIQHTSAYAMTFLQTFLGIFLLLPFVDFGKFQGLTEMNWMMITATGLIHTGFVYYLFFDSLRDLSTRMISVLVFLDPAVAILLDTVFTGFRPTSMQVVGIVLIFVGMAFTFRKTKDEEIAVKEKLYS	failed
MKKLNIALLGLGTVGSGVVKIIEENRQQIQDTLNKDIVIKHILVRDKSKKRPLNISQYHLTEDVNEILNDDSLDIIVEVMGGIEPTVDWLRTALKNKKHVITANKDLLAVHLKLLEDLAEENGVALKFEASVAGGIPIVNAINNGLNANNISKFMGILNGTSNFILSKMTKEQTTFEEALDEAKRLGFAEADPTDDVEGVDAARKVVITSYLSFNQVIKLNDVKRRGISGVTLTDINVADQLGYKIKLIGKGIYENGKVNASVEPTLIDKKHQLAAVEDEYNAIYVIGDAVGDTMFYGKGAGSLATGSAVVSDLLNVALFFESDLHTLPPHFELKTDKTREMMDSDAEINIKEKSNFFVVVNHVKGSIENFENELKAILPFHRSLRVANYDNQSYAAVIVGLESSPEELITKHGYEVDKVYPVEGV	failed
MTILDRLTGLAFPAAVLRRAIKLADSGKAAEAFPLMAKAARAGIVDAEYRVARCYLEGAGVPPSRMEGARWLLRAADHGSADAQALLAALYVTGLVTSEADGKGPSEHLFKPDSAGKPDFTAAFDFATKAAEAGSATGQAILGYILTSGPASMRDADAAHRWYEKSASAGCAEGCLGFALSLARRGKRENRVRIAEEVRRAADAGLPTATYLLAVLTEHGLGVARDMAAAAQLYQAAAEKGLPSAQFRLGLALIDGALVGQDVAAGEAWMRRAALAGNIEAAYLLGDRHAKTQRPDFAEAANWYRRAAEAGHQAAARALASLYLTGNGVAEDVEEGARWLRSSASAGNQQAQTDLANLILGGAGEPDDGASVAGWFEAAASSGDLIAAFNLGLCFAKGVGVRQDEGQAAHWLRRAAEGVAEAQYMYARLLQDGRGVAADPTQARVWFARAADAGVLDARVALAEMLLNGRGGMPEPEAAMQLFEQAAADGHAGAMFAIGALYGAGHGLPLDQTTAQKWYAAAAGRGHSQAQFMLGRYLLKGLAGERDPVAARLWLERAAAHGISEAADELGAAGGSD	failed
MRRRRRRDGFYLAPDFRHREAEDMAGVFDIDLDQPEDAGSEDELEEGGQLNESMDHGGVGPYELGMEHCEKFEISETSVNRGPEKIRPECFELLRVLGKGGYGKVFQVRKVTGANTGKIFAMKVLKKAMIVRNAKDTAHTKAERNILEEVKHPFIVDLIYAFQTGGKPYLILEYLSG	not failed
MADNSATRVRVPSDRNSRRKIKGEVDIISSLPDVILQHILFSFQTKYAIRTSVLSKRWRHEADAINKALSQYTAPKMMNFHLKINKNNSLHHIKKWTEFAMSRNVENMSLDVRFRSNKIPRFYEINSSVKSLSHRLDLHDVIPRHGVSWTSLKKFSLSYCGLPDESAKILSGCPILEWPMQIVAPQIHCLKLRNTQLPCTLVDVSSLTEAEVLDIIIFPVNLSYNADFLHATMLEMLKKLKNVEKLTFSGSYLQNLSVAEKRGVPFPMFKVKALTLEMKHFVISDIERMLQSSPNLKKLTVRAKDNTGKYLYRYFARLESGSMLELKKGV	failed
